Tests used:
[1] = molecular target: actin filaments; assay: F-actin high-speed co-sedimentation, direct comparison with dystrophin
[2] = molecular target: actin filaments; assay: F-actin high-speed co-sedimentation

| Substance | extent of lateral association with actin filaments (stoichiometry) (actin monomers per utrophin molecule) [1] | Bmax (actin monomers per dystrophin molecule) [2] | Kd [2] |
| --- | --- | --- | --- |
| full-length recombinant utrophin (from UniProt G3V7L1 1-3418) | 14 |  |  |
| recombinant full-length mouse dystrophin (from UniProt P11531 1-3678) |  | 24 | 400 nM |
